Experimental data reported in publication PMC6420783.

How the values were obtained:
NPM1 = NPM1 (UniProt P06748 1-294); experiment: SPR
Ape1WT = Ape1WT (Homo sapiens, UniProt P27695 1-318); experiment: SPR
Chain of Ape1WT (P27695 whole entry): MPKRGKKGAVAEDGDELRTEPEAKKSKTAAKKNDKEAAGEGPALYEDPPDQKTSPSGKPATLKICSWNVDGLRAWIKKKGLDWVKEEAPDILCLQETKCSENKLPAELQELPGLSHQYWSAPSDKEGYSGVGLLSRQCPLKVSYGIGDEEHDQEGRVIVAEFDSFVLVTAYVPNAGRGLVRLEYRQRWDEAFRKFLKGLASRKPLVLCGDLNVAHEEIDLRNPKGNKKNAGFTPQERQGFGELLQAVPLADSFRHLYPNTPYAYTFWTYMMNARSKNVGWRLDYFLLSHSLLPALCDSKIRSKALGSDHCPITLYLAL

Chain of NPM1 (P06748 whole entry): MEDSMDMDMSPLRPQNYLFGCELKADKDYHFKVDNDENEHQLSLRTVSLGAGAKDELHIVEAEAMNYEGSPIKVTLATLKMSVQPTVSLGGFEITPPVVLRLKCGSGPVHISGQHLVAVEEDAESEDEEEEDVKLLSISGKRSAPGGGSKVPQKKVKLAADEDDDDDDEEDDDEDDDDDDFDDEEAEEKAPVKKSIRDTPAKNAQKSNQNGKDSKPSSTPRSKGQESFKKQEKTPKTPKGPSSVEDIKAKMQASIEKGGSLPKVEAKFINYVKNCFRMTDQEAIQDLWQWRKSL

B1: Biot-Poly dT (ssDNA)
DNA: TTTTTTTTTTTTTTTTTTTTTTT
Kd (NPM1): 255 nM
Kd (Ape1WT): 170 nM

B2: Biot-Nat (structured_DNA)
DNA: TAGGGTTAGGGTTAGGGTTAGGG
Kd (NPM1): 147 nM
Kd (Ape1WT): 31.6 nM
